Results on 1 protein are retold here after PMC12959407 (Science Advances, 2026).

Where “and” joins values, the source holds several entries; their conditions need not be identical. Equal entries are not always repeated.

The term stoichiometry N denotes the number of molecules, sites or subunits per partner or assembly.

The series deals with the molecule itself. Kind of series: cryo-EM structure; single-particle cryo-EM of purified proteins; mHsp60 10 uM and mHsp10 8 uM mixed in 20 mM tris-HCl pH 7.7, 20 mM KCl, 10 mM MgCl2, 2 mM ATP; incubated 30 s to 30 min before vitrification.

B1: recombinant WT human mitochondrial Hsp60 (mHsp60), mature form (natural protein)
chain: GSAKDVKFGADARALMLQGVDLLADAVAVTMGPKGRTVIIEQSWGSPKVTKDGVTVAKSIDLKDKYKNIGAKLVQDVANNTNEEAGDGTTTATVLARSIAKEGFEKISKGANPVEIRRGVMLAVDAVIAELKKQSKPVTTPEEIAQVATISANGDKEIGNIISDAMKKVGRKGVITVKDGKTLNDELEIIEGMKFDRGYISPYFINTSKGQKCEFQDAYVLLSEKKISSIQSIVPALEIANAHRKPLVIIAEDVDGEALSTLVLNRLKVGLQVVAVKAPGFGDNRKNQLKDMAIATGGAVFGEEGLTLNLEDVQPHDLGKVGEVIVTKDDAMLLKGKGDKAQIEKRIQEIIEQLDVTTSEYEKEKLNERLAKLSDGVAVLKVGGTSDVEVNEKKDRVTDALNATRAAVEEGIVLGGGCALLRCIPALDSLTPANEDQKIGIEIIKRTLKIPAMTIAKNAGVEGSLIVEKIMQSSSEVGYDAMAGDFVNMVEKGIIDPTKVVRTALLDAAGVASLLTTAEVVVTEIPKEEKDPGMGAMGGMGGGMGGGMF
notes: additional Gly-Ser kept at the N terminus after TEV cleavage; human mitochondrial Hsp60 without the 26-residue mitochondrial targeting signal of the 573-residue precursor; mature protein of 547 residues beginning with AKDVKFG; numbers count on: the mature protein; Forms heptameric rings; seven copies in single rings and half-footballs, fourteen in double rings, bullets and footballs; also called …
Consider B1, for which the “stoichiometry N” value is 7 and 14.
